Legend:
Test in all cases: cell_activity
[1] = system: TALEN 1R2 (TAPBP exon 2 right arm) (synthetic construct); details: as pair 1L2*1R2 in hESCs, puromycin selection; SEQ 28 in the listing is printed reversed
[2] = system: TALEN 1L2 (TAPBP exon 2 left arm) (synthetic construct); details: as pair 1L2*1R2 in hESCs, puromycin selection; one or two alleles
[3] = system: TALEN 2R1 (TAP1 exon 1 right arm) (synthetic construct); details: as pair 2L3*2R1 in hESCs, puromycin selection; SEQ 24 in the listing is printed reversed
[4] = system: TALEN 2L3 (TAP1 exon 1 left arm) (synthetic construct); details: as pair 2L3*2R1 in hESCs, puromycin selection; one or two alleles

Work on “CTCTTGGCCAGGCCCTTT (double strand) [TAPBP exon 2 right half-site]” yielded an activity (% clones targeted) [1] of 33.3.
Sequence “GATCGAGTGTTGGTT (double strand) [TAPBP exon 2 left half-site]” has an activity (% clones targeted) [2] of 33.3.
Work on “GGCAAGTCCCGGCAGGG (double strand) [TAP1 exon 1 right half-site]” yielded an activity (% clones targeted) [3] of 27.1.
For “TGAAGCCATTAGCTG (double strand) [TAP1 exon 1 left half-site]”, the activity (% clones targeted) [4] was 27.1.

— patent US20180250335
